Like-named read-outs stand apart in the source and are kept apart here.
Columns and labels:
[1] = biological target: T1, PD-L1 expressed on the cell surface (CHO/PD-L1 cells) (UniProt Q9NZQ7 19-290); assay: flow cytometry (FACS) on JIMT-1 cells (PD-L1 positive), MFI
T1 construct: whole, on cells; also called PD-L1 on JIMT-1 cells

[2] = biological target: T1, PD-L1 expressed on the cell surface …; assay: cell-based or functional assay
[3] = biological target: T2, CD137 expressed on the cell surface (CHO/CD137 cells) (UniProt Q07011 24-255, limits assumed); assay: flow cytometry (FACS) on CHO cells expressing CD137, MFI
T2 construct: whole, on cells; also called cell surface CD137; Jurkat-NF-κB-Luc reporter cells overexpressing CD137
T2 sequence (Q07011 24-255 limits assumed): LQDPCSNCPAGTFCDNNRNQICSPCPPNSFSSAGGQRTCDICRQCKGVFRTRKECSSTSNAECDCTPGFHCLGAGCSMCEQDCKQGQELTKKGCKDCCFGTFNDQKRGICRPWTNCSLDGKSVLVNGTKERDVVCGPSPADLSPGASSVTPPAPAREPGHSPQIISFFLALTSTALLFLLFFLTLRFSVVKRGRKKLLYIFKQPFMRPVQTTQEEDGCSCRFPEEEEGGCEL

[4] = biological target: T1, PD-L1 expressed on the cell surface …; assay: cell-based or functional assay; remark: listed apart in the source
[5] = biological target: T2, CD137 expressed on the cell surface …; assay: flow cytometry (FACS) on CHO cells expressing CD137, MFI; remark: listed apart in the source
Procedure: FACS analysis to evaluate the test articles for binding to cell surface CD137 was performed essentially as follows: 100 μL of CHO cells expressing CD137 (CHO/CD137) (1.0×10⁵ to 1×10⁶ cells/well) and 100 μL of serially diluted test article or control was added to each well of microtiter assay plate(s), mixed and incubated at RT for about 30 min. The cells were washed with FACS Buffer and secondary antibody (goat anti-human-APC, PE, or FITC) was then added to each well (1:1000), after which, the components were mixed and the wells were incubated at RT for about 30 min. Cells were washed and resuspended in 250 μL FACS Buffer and analyzed by flow cytometry (BD LSR Fortessa or FACSCanto II) for cell events collection. Data analysis were performed via FloJo v10.

[6] = biological target: T1, PD-L1 expressed on the cell surface …; assay: cell-based or functional assay; remark: listed apart in the source
[7] = biological target: T1, PD-L1 expressed on the cell surface …; assay: flow cytometry (FACS) on CHO cells expressing PD-L1, MFI
Procedure: FACS analysis to evaluate the test articles for binding to cell surface PD-L1 was performed essentially as follows: 100 μL of CHO cells expressing PD-L1 (CHO/PD-L1) (1.0×10⁵ to 1.0×10⁶ cells/well) and 100 μL of serially diluted test article was added to each well of microtiter assay plate(s), mixed and incubated at RT for about 30 min. The cells were washed with FACS Buffer and secondary antibody (goat anti-human-FITC, PE, or APC) was then added to each well, after which, the components were mixed and the wells were incubated at RT for about 30 min. Cells were washed and resuspended in 250 μL FACS Buffer and analyzed by flow cytometry (BD LSR Fortessa or FACSCanto II) for cell events collection. Data analysis were performed via FloJo v10.
Test articles were used at 10 μg/mL and five-fold serial dilutions for the FACS analysis and at 50 μg/mL and five-fold serial dilutions for the PD-L1 reporter assay.

T1 sequence (Q9NZQ7 19-290): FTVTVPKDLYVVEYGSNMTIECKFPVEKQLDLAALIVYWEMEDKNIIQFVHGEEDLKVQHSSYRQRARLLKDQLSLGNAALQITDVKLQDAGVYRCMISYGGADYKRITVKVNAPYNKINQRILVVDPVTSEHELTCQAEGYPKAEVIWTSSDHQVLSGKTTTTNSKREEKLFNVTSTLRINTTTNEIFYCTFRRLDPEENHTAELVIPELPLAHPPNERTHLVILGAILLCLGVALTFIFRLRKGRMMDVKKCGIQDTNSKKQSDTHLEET

Binder | EC50 (read off the curve) [1] [µg/mL] | EC50 (read off the curve) [2] [µg/mL] | EC50 (read off the curve) [3] [µg/mL] | EC50 (read off the curve) [4] [µg/mL] | EC50 (read off the curve) [5] [µg/mL] | EC50 (read off the curve) [6] [µg/mL] | EC50 (read off the curve) [7] [µg/mL]
DART-A1 (bispecific antibody) first and third polypeptide chains: DIQMTQSPSSLSASVGDRVTITCKASQDVNTAVAWYQQKPGKAPKLLIYWASTRHTGVPSRFSGSGSGTDFTLTISSLQPEDFATYYCQQHYNTPLTFGQGTKVEIKGGGSGGGGQVQLQESGPGLVKPSETLSLTCTVSGGSISSYYWSWIRQPPGKGLEWIGRIYTSGSTNYNPSLKSRVTMSVDTSKNQFSLKLSSVTAADTAVYYCARDGWYDEDYNYYGMDVWGQGTTVTVSSGGCGGGEVAACEKEVAALEKEVAALEKEVAALEKLEPKSADKTHTCPPCPAPEAAGGPSVFLFPPKPKDTLYITREPEVTCVVVDVSHEDPEVKFNWYVDGVEVHNAKTKPREEQYNSTYRVVSVLTVLHQDWLNGKEYKCKVSNKALPAPIEKTISKAKGQPREPQVYTLPPSREEMTKNQVSLTCLVKGFYPSDIAVEWESNGQPENNYKTTPPVLDSDGSFFLYSKLTVDKSRWQQGNVFSCSVMHEALHNHYTQKSLSLSPGK second and fourth polypeptide chains: EIVMTQSPATLSLTPGERATLSCRASQSVSSNYLSWFQQIPGQAPRLLIYGASTRATGIPARFSGSGSGTDFTLTISSLQPEDFAVYYCQQDYDLPWTFGQGTKVEIKGGGSGGGGEVQLVESGGGLVQPGGSLRLSCAASGFTFSSYTMSWVRQAPGKGLEWVAYISIGGGTTYYPDTVKGRFTISRDNAKNSLYLQMNSLRAEDTAVYYCARQGLPYYFDYWGQGTLVTVSSGGCGGGKVAACKEKVAALKEKVAALKEKVAALKE | ~0.007 | ~0.1 |  |  |  |  | 
DART-A4 (bispecific antibody, Tetravalent; CD137 MAB-6(1.1) and hPD-L1 MAB-2(3.2)) chain 1: DIQMTQSPSSLSASVGDRVTITCKASQDVNEAVAWYQQKPGKAPKLLIYWASTRHTGVPSRFSGSGSGTDFTLTISSLQPEDFATYYCQQHYNTPLTFGQGTKVEIKGGGSGGGGQVQLQESGPGLVKPSETLSLTCTVSGGSISSYYWSWIRQPPGKGLEWIGRIYTSGSTNYNPSLKSRVTMSVDTSKNQFSLKLSSVTAADTAVYYCARDGWYDEDYNYYGMDVWGQGTTVTVSSGGCGGGEVAACEKEVAALEKEVAALEKEVAALEKLEPKSADKTHTCPPCPAPEAAGGPSVFLFPPKPKDTLYITREPEVTCVVVDVSHEDPEVKFNWYVDGVEVHNAKTKPREEQYNSTYRVVSVLTVLHQDWLNGKEYKCKVSNKALPAPIEKTISKAKGQPREPQVYTLPPSREEMTKNQVSLTCLVKGFYPSDIAVEWESNGQPENNYKTTPPVLDSDGSFFLYSKLTVDKSRWQQGNVFSCSVMHEALHNHYTQKSLSLSPGK chain 2: EIVMTQSPATLSLTPGERATLSCRASQSVSSNYLSWFQQIPGQAPRLLIYGASTRATGIPARFSGSGSGTDFTLTISSLQPEDFAVYYCQQDYDLPWTFGQGTKVEIKGGGSGGGGEVQLVESGGGLVQPGGSLRLSCAASGFTFSSYTMSWVRQAPGKGLEWVAYISIKGGTTYYPDTVKGRFTISRDNAKNSLYLQMNSLRAEDTAVYYCARQGLPYYGDYWGQGTLVTVSSGGCGGGKVAACKEKVAALKEKVAALKEKVAALKE | ~0.004 | ~0.08 | ~0.02 | ~0.2 | ~0.04 | ~0.1 | 
DART-A6 (bispecific antibody, Tetravalent; CD137 MAB-6(1.3) and hPD-L1 MAB-2(3.2)) chain 1: DIQMTQSPSSLSASVGDRVTITCKASQDVNEAVAWYQQKPGKAPKLLIYWASTRHTGVPSRFSGSGSGTDFTLTISSLQPEDFATYYCQQHYNTPLTFGQGTKVEIKGGGSGGGGQVQLQESGPGLVKPSETLSLTCTVSGGSISSYYWSWIRQPPGKGLEWIGRIYTSGSTNYNPSLKSRVTMSVDTSKNQFSLKLSSVTAADTAVYYCARDGWYDEDYNYYGMDVWGQGTTVTVSSGGCGGGEVAACEKEVAALEKEVAALEKEVAALEKLEPKSADKTHTCPPCPAPEAAGGPSVFLFPPKPKDTLYITREPEVTCVVVDVSHEDPEVKFNWYVDGVEVHNAKTKPREEQYNSTYRVVSVLTVLHQDWLNGKEYKCKVSNKALPAPIEKTISKAKGQPREPQVYTLPPSREEMTKNQVSLTCLVKGFYPSDIAVEWESNGQPENNYKTTPPVLDSDGSFFLYSKLTVDKSRWQQGNVFSCSVMHEALHNHYTQKSLSLSPGK chain 2: EIVMTQSPATLSLSPGERATLSCRASQSVSSNYLSWFQQKPGQAPRLLIYGASTRATGIPARFSGSGSGTDFTLTISSLQPEDFAVYYCQQDYDLPWTFGQGTKVEIKGGGSGGGGEVQLVESGGGLVQPGGSLRLSCAASGFTFSSYTMSWVRQAPGKGLEWVAYISIKGGTTYYPDTVKGRFTISRDNAKNSLYLQMNSLRAEDTAVYYCARQGLPYYGDYWGQGTLVTVSSGGCGGGKVAACKEKVAALKEKVAALKEKVAALKE |  |  | ~0.02 | ~0.2 | ~0.05 |  | 

Other lines, results leading:

EC50 (read off the curve) [1] [µg/mL] | EC50 (read off the curve) [2] [µg/mL] | EC50 (read off the curve) [3] [µg/mL] | EC50 (read off the curve) [4] [µg/mL] | EC50 (read off the curve) [5] [µg/mL] | EC50 (read off the curve) [6] [µg/mL] | EC50 (read off the curve) [7] [µg/mL] | Binder
 |  | ~0.02 |  |  |  |  | DART-A5 (bispecific antibody, Tetravalent; CD137 MAB-6(1.2) and hPD-L1 MAB-2(3.2)) chain 1: DIQMTQSPSSLSASVGDRVTITCKASQDVNEAVAWYQQKPGKAPKLLIYWASTRHTGVPSRFSGSGSGTDFTLTISSLQPEDFATYYCQQHYNTPLTFGQGTKVEIKGGGSGGGGQVQLQESGPGLVKPSETLSLTCTVSGGSISSYYWSWIRQPPGKGLEWIGRIYTSGSTNYNPSLKSRVTMSVDTSKNQFSLKLSSVTAADTAVYYCARDGWYDEDYNYYGMDVWGQGTTVTVSSGGCGGGEVAACEKEVAALEKEVAALEKEVAALEKLEPKSADKTHTCPPCPAPEAAGGPSVFLFPPKPKDTLYITREPEVTCVVVDVSHEDPEVKFNWYVDGVEVHNAKTKPREEQYNSTYRVVSVLTVLHQDWLNGKEYKCKVSNKALPAPIEKTISKAKGQPREPQVYTLPPSREEMTKNQVSLTCLVKGFYPSDIAVEWESNGQPENNYKTTPPVLDSDGSFFLYSKLTVDKSRWQQGNVFSCSVMHEALHNHYTQKSLSLSPGK chain 2: EIVMTQSPATLSLSPGERATLSCRASQSVSSNYLSWYQQKPGQAPRLLIYGASTRATGIPARFSGSGSGTDFTLTISSLQPEDFAVYYCQQDYDLPWTFGQGTKVEIKGGGSGGGGEVQLVESGGGLVQPGGSLRLSCAASGFTFSSYTMSWVRQAPGKGLEWVAYISIKGGTTYYPDTVKGRFTISRDNAKNSLYLQMNSLRAEDTAVYYCARQGLPYYGDYWGQGTLVTVSSGGCGGGKVAACKEKVAALKEKVAALKEKVAALKE
 |  |  |  | ~0.02 |  | ~0.08 | TRIDENT-A (bispecific antibody, human IgG1, kappa, L234A L235A, Trivalent: two CD137 MAB-6(1.1) sites, one hPD-L1 MAB-2(1.1) Fab-type site) chain 1: EIVMTQSPATLSLTPGERATLSCRASQSVSSNYLSWFQQIPGQAPRLLIYGASTRATGIPARFSGSGSGTDFTLTISSLQPEDFAVYYCQQDYDLPWTFGQGTKVEIKGGGSGGGGQVQLQESGPGLVKPSETLSLTCTVSGGSISSYYWSWIRQPPGKGLEWIGRIYTSGSTNYNPSLKSRVTMSVDTSKNQFSLKLSSVTAADTAVYYCARDGWYDEDYNYYGMDVWGQGTTVTVSSGGCGGGEVAALEKEVAALEKEVAALEKEVAALEKGGGDKTHTCPPCPAPEAAGGPSVFLFPPKPKDTLYITREPEVTCVVVDVSHEDPEVKFNWYVDGVEVHNAKTKPREEQYNSTYRVVSVLTVLHQDWLNGKEYKCKVSNKALPAPIEKTISKAKGQPREPQVYTLPPSREEMTKNQVSLWCLVKGFYPSDIAVEWESNGQPENNYKTTPPVLDSDGSFFLYSKLTVDKSRWQQGNVFSCSVMHEALHNHYTQKSLSLSPGK chain 2: EIVMTQSPATLSLTPGERATLSCRASQSVSSNYLSWFQQIPGQAPRLLIYGASTRATGIPARFSGSGSGTDFTLTISSLQPEDFAVYYCQQDYDLPWTFGQGTKVEIKGGGSGGGGQVQLQESGPGLVKPSETLSLTCTVSGGSISSYYWSWIRQPPGKGLEWIGRIYTSGSTNYNPSLKSRVTMSVDTSKNQFSLKLSSVTAADTAVYYCARDGWYDEDYNYYGMDVWGQGTTVTVSSGGCGGGKVAALKEKVAALKEKVAALKEKVAALKE heavy: EVQLVESGGGLVQPGGSLRLSCAASGFTFSSYTMSWVRQAPGKGLEWVAYISIGGGTTYYPDTVKGRFTISRDNAKNTLYLQMNSLKTEDTAVYYCARQGLPYYFDYWGQGTLVTVSSASTKGPSVFPLAPSSKSTSGGTAALGCLVKDYFPEPVTVSWNSGALTSGVHTFPAVLQSSGLYSLSSVVTVPSSSLGTQTYICNVNHKPSNTKVDKRVEPKSCDKTHTCPPCPAPEAAGGPSVFLFPPKPKDTLYITREPEVTCVVVDVSHEDPEVKFNWYVDGVEVHNAKTKPREEQYNSTYRVVSVLTVLHQDWLNGKEYKCKVSNKALPAPIEKTISKAKGQPREPQVYTLPPSREEMTKNQVSLSCAVKGFYPSDIAVEWESNGQPENNYKTTPPVLDSDGSFFLVSKLTVDKSRWQQGNVFSCSVMHEALHNRYTQKSLSLSPGK light: DIQMTQSPSSLSASVGDRVTITCKASQDVNTAVAWYQQKPGKAPKLLIYWASTRHTGVPSRFSGSGSGTDFTLTISSLQPEDFATYYCQQHYNTPLTFGQGTKVEIKRTVAAPSVFIFPPSDEQLKSGTASVVCLLNNFYPREAKVQWKVDNALQSGNSQESVTEQDSKDSTYSLSSTLTLSKADYEKHKVYACEVTHQGLSSPVTKSFNRGEC

Reference: patent publication US20230094162A1 (MacroGenics, published 2023)
